{"source": "paper PMC11052993", "about": "“Functional implication of the homotrimeric multidomain vacuolar sorting receptor 1 (VSR1) from Arabidopsis thaliana” (Scientific Reports, 2024)", "proteins": {"B1": {"name": "luminal domain of vacuolar sorting receptor 1 (VSR1) from Arabidopsis thaliana, residues 1 to 560 (domain or fragment, UniProt P93026 23-560, looked up)", "chain": "VEKNNLKVTSPDSIKGIYECAIGNFGVPQYGGTLVGTVVYPKSNQKACKSYSDFDISFKSKPGRLPTFVLIDRGDCYFTLKAWIAQQAGAAAILVADSKAEPLITMDTPEEDKSDADYLQNITIPSALITKTLGDSIKSALSGGDMVNMKLDWTESVPHPDERVEYELWTNSNDECGKKCDTQIEFLKNFKGAAQILEKGGHTQFTPHYITWYCPEAFTLSKQCKSQCINHGRYCAPDPEQDFTKGYDGKDVVVQNLRQACVYRVMNDTGKPWVWWDYVTDFAIRCPMKEKKYTKECADGIIKSLGIDLKKVDKCIGDPEADVENPVLKAEQESQIGKGSRGDVTILPTLVVNNRQYRGKLEKGAVLKAMCSGFQESTEPAICLTEDLETNECLENNGGCWQDKAANITACRDTFRGRLCECPTVQGVKFVGDGYTHCKASGALHCGINNGGCWRESRGGFTYSACVDDHSKDCKCPLGFKGDGVKNCEDVDECKEKTVCQCPECKCKNTWGSYECSCSNGLLYMREHDTCIGSGKVG", "modifications": "N-glycosylation at Asn289 (two N-acetylglucosamine)", "notes": "signal peptide in the construct; vacuolar sorting receptor 1 (VSR1), Arabidopsis thaliana, luminal part, residues 1 to 560; the model of the structure runs from Phe21 to Ala465 (Ser120-Asp137 disordered); Trimer by crystallographic three-fold symmetry; one molecule in the asymmetric unit; also called AtVSR1; full-length VSR1 luminal domain"}}, "target": "the molecule itself", "assay": "crystal structure; space group P2(1)3, one molecule in the asymmetric unit, trimer built by crystallographic three-fold symmetry; 3.5 Å dataset, molecular replacement with PDB 4TJV"}
{"protein": "B1", "values": [{"measurement": "stoichiometry N", "value": 3}]}
